Some targets named below: native CD4 (human) (UniProt P01730); CD3 epsilon (human) (UniProt P07766); CD8/zeta chimera (human) (UniProt P01732); wild-type CD8 protein (UniProt P01732).
Holding throughout (experiment): cell-based or functional assay
The target of assay [1] is Jurkat Ti β chain (human).
The target of assay [2] is CD4-zeta chimeric receptor F2 (human) (UniProt P01730).
In assay [3] the target is CD4-zeta chimeric receptor F3 (human) (UniProt P01730).
Assay [4] deals with human HLA Class 1 antigens.

Chain of UniProt P01732 (P01732 other isoform, or with tags, fused parts or gaps mutant): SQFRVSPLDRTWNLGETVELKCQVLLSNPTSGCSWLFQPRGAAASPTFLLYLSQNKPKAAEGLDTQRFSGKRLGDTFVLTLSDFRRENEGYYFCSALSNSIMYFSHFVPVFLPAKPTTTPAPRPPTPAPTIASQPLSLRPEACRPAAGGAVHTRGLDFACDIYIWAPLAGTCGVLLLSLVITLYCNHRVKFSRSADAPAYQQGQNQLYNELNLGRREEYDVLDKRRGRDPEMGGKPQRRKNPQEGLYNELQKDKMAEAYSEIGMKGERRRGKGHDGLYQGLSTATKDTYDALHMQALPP

Regarding C305 (antibody), in assay [1], the IL-2 (Units/ml), JCD8/zeta 2, C305 + PMA, experiment #1 was 3.7 Units/ml; the IL-2 (Units/ml), JCD8/zeta 2, C305 + PMA, experiment #2 came to 2.1 Units/ml; the IL-2 (Units/ml), Jurkat CD8, C305 + PMA, experiment #1 was 13.5 Units/ml; the IL-2 (Units/ml), Jurkat CD8, C305 + PMA, experiment #2 was determined as 9.1 Units/ml. In addition, in assay [1], the internalization of the TCR after overnight incubation of JCD8/zeta 2 with saturating C305 was 94%.
For the molecule OKT4A (antibody), in assay [2], the IL2 produced relative to stimulation with Ionomycin, Jurkat clone F2/1A11 (relative to Ionomycin = 100) is 86; the IL2 produced relative to stimulation with Ionomycin, Jurkat clone F2/1D1 (relative to Ionomycin = 100) came out at 60; the absolute level of IL2 produced, Jurkat clone F2/1A11 was found to be 543 pg/mL; the absolute level of IL2 produced, Jurkat clone F2/1D1 turned out to be 683 pg/mL. In assay [3], this molecule gave an IL2 produced relative to stimulation with Ionomycin, Jurkat clone F3/2.2 (relative to Ionomycin = 100) of 160; an IL2 produced relative to stimulation with Ionomycin, Jurkat clone F3/2.7 (relative to Ionomycin = 100) of 210; an absolute level of IL2 produced, Jurkat clone F3/2.2 of 1200 pg/mL; an absolute level of IL2 produced, Jurkat clone F3/2.7 of 671 pg/mL. In the assay with native CD4 (human), this molecule yielded an IL2 produced relative to stimulation with Ionomycin, Jurkat clone CD4/1F7 (relative to Ionomycin = 100) of 0.3; an IL2 produced relative to stimulation with Ionomycin, Jurkat clone CD4/4.1 (relative to Ionomycin = 100) of 2; an absolute level of IL2 produced, Jurkat clone CD4/1F7 of 19 pg/mL; an absolute level of IL2 produced, Jurkat clone CD4/4.1 of 9 pg/mL.
For W6/32 (antibody), in assay [4], the IL2 produced relative to stimulation with Ionomycin, Jurkat clone CD4/1F7 (relative to Ionomycin = 100) is 0.1; the IL2 produced relative to stimulation with Ionomycin, Jurkat clone CD4/4.1 (relative to Ionomycin = 100) is 0.7; the IL2 produced relative to stimulation with Ionomycin, Jurkat clone F2/1A11 (relative to Ionomycin = 100) was 10; the IL2 produced relative to stimulation with Ionomycin, Jurkat clone F2/1D1 (relative to Ionomycin = 100) is 11. Also, in assay [4], the IL2 produced relative to stimulation with Ionomycin, Jurkat clone F3/2.2 (relative to Ionomycin = 100) came to 3; the IL-2 (Units/ml), JCD8/zeta 2, W6/32 + PMA, experiment #1 was under 0.1 Units/ml; the IL-2 (Units/ml), JCD8/zeta 2, W6/32 + PMA, experiment #2 was under 0.1 Units/ml; the IL-2 (Units/ml), Jurkat CD8, W6/32 + PMA, experiment #1 is under 0.1 Units/ml. Further, in assay [4], the IL-2 (Units/ml), Jurkat CD8, W6/32 + PMA, experiment #2 was under 0.1 Units/ml; the absolute level of IL2 produced, Jurkat clone CD4/1F7 was 3 pg/mL; the absolute level of IL2 produced, Jurkat clone CD4/4.1 amounted to 3 pg/mL; the absolute level of IL2 produced, Jurkat clone F2/1A11 amounted to 104 pg/mL. Also, in assay [4], the absolute level of IL2 produced, Jurkat clone F2/1D1 was 123 pg/mL; the absolute level of IL2 produced, Jurkat clone F3/2.2 was 19 pg/mL; the absolute level of IL2 produced, Jurkat clone F3/2.7 is 0 pg/mL.
For OKT3 (antibody), in the assay with CD3 epsilon (human), the IL2 produced relative to stimulation with Ionomycin, Jurkat clone CD4/1F7 (relative to Ionomycin = 100) is 38; the IL2 produced relative to stimulation with Ionomycin, Jurkat clone CD4/4.1 (relative to Ionomycin = 100) stood at 65; the IL2 produced relative to stimulation with Ionomycin, Jurkat clone F2/1A11 (relative to Ionomycin = 100) amounted to 51; the IL2 produced relative to stimulation with Ionomycin, Jurkat clone F2/1D1 (relative to Ionomycin = 100) amounted to 59. In addition, in the assay with CD3 epsilon (human), the IL2 produced relative to stimulation with Ionomycin, Jurkat clone F3/2.2 (relative to Ionomycin = 100) amounted to 65; the IL2 produced relative to stimulation with Ionomycin, Jurkat clone F3/2.7 (relative to Ionomycin = 100) is 92; the absolute level of IL2 produced, Jurkat clone CD4/1F7 came out at 2100 pg/mL; the absolute level of IL2 produced, Jurkat clone CD4/4.1 was 309 pg/mL. Further, in the assay with CD3 epsilon (human), the absolute level of IL2 produced, Jurkat clone F2/1A11 is 918 pg/mL; the absolute level of IL2 produced, Jurkat clone F2/1D1 is 671 pg/mL; the absolute level of IL2 produced, Jurkat clone F3/2.2 worked out at 481 pg/mL; the absolute level of IL2 produced, Jurkat clone F3/2.7 was 295 pg/mL.

B1: OKT8 (antibody, from another filing, V domains shown)
VH: EVQLQQSGAELVKPGASVKLSCTASGFNIKDTYIHFVRQRPEQGLEWIGRIDPANDNTLYASKFQGKATITADTSSNTAYMHLCSLTSGDTAVYYCGRGYGYYVFDHWGQGTTLTVSS
VL: DVQINQSPSFLAASPGETITINCRTSRSISQYLAWYQEKPGKTNKLLIYSGSTLQSGIPSRFSGSGSGTDFTLTISGLEPEDFAMYYCQQHNENPLTFGAGTKLELK
Take B1: in the assay with CD8/zeta chimera (human), the IL-2 (Units/ml), JCD8/zeta 2, OKT8 + PMA, experiment #1 was found to be 6.8 Units/ml and the IL-2 (Units/ml), JCD8/zeta 2, OKT8 + PMA, experiment #2 was 7 Units/ml. In the assay with wild-type CD8 protein, the IL-2 (Units/ml), Jurkat CD8, OKT8 + PMA, experiment #1 was under 0.1 Units/ml and the IL-2 (Units/ml), Jurkat CD8, OKT8 + PMA, experiment #2 was under 0.1 Units/ml.
